Source: patent US20250320281A1

Legend:
Assay in all cases: cell-based or functional assay
[1] = target: HIV-1 Env of isolate MGRM-A-003 (pseudovirus) (HIV-1)
[2] = target: HIV-1 Env of isolate MGRM-A-012 (pseudovirus) (HIV-1)
[3] = target: HIV-1 Env of isolate 94UG103 (pseudovirus) (HIV-1)
[4] = target: HIV-1 Env of isolate CMU02 (pseudovirus) (HIV-1)
[5] = target: HIV-1 Env of isolate 92TH021 (pseudovirus) (HIV-1)
[6] = target: HIV-1 Env of isolate 92WR009 (pseudovirus) (HIV-1)
[7] = target: HIV-1 Env of isolate MGRM-AE-002 (pseudovirus) (HIV-1)
[8] = target: HIV-1 Env of isolate MGRM-AE-001 (pseudovirus) (HIV-1)
[9] = target: HIV-1 Env of isolate MGRM-A-005 (pseudovirus) (HIV-1)
[10] = target: HIV-1 Env of isolate 92RW008 (pseudovirus) (HIV-1)
[11] = target: HIV-1 Env of isolate MGRM-A-013 (pseudovirus) (HIV-1)
[12] = target: HIV-1 Env of isolate MGRM-A-006 (pseudovirus) (HIV-1)
[13] = target: HIV-1 Env of isolate MGRM-A-002 (pseudovirus) (HIV-1)
[14] = target: HIV-1 Env of isolate MGRM-A-011 (pseudovirus) (HIV-1)
[15] = target: HIV-1 Env of isolate 92WR020 (pseudovirus) (HIV-1)
[16] = target: HIV-1 Env of isolate VLGCA1 (pseudovirus) (HIV-1)
[17] = target: HIV-1 Env of isolate MGRM-A-014 (pseudovirus) (HIV-1)
[18] = target: HIV-1 Env of isolate 94KE105 (pseudovirus) (HIV-1)
[19] = target: HIV-1 Env of isolate 92WR026 (pseudovirus) (HIV-1)
[20] = target: HIV-1 Env of isolate 93UG077 (pseudovirus) (HIV-1)
[21] = target: HIV-1 Env of isolate MGRM-A-010 (pseudovirus) (HIV-1)
[22] = target: HIV-1 Env of isolate MGRM-AE-003 (pseudovirus) (HIV-1)
[23] = target: HIV-1 Env of isolate 92UG031 (pseudovirus) (HIV-1)
[24] = target: HIV-1 Env of isolate 93WR029 (pseudovirus) (HIV-1)
[25] = target: HIV-1 Env of isolate 92WR021 (pseudovirus) (HIV-1)
[26] = target: HIV-1 Env of isolate MGRM-A-008 (pseudovirus) (HIV-1)
[27] = target: HIV-1 Env of isolate MGRM-A-004 (pseudovirus) (HIV-1)
[28] = target: HIV-1 Env of isolate 92UG037 (pseudovirus) (HIV-1)
[29] = target: HIV-1 Env of isolate MGRM-A-009 (pseudovirus) (HIV-1)
[30] = target: HIV-1 Env of isolate MGRM-A-007 (pseudovirus) (HIV-1)
[31] = target: HIV-1 Env of isolate 92WR024 (pseudovirus) (HIV-1)
[32] = target: HIV-1 Env of isolate MGRM-A-001 (pseudovirus) (HIV-1)

B1: PGT-123 (4858_P08) (antibody, V domains shown)
VH: QLHLQESGPGLVKPPETLSLTCSVSGASINDAYWSWIRQSPGKRPEWVGYVHHSGDTNYNPSLKRRVTFSLDTAKNEVSLKLVDLTAADSATYFCARALHGKRIYGIVALGELFTYFYMDVWGKGTAVTVSS
VL: SSMSVSPGETAKISCGKESIGSRAVQWYQQKPGQPPSLIIYNNQDRPAGVPERFSASPDFRPGTTATLTITNVDAEDEADYYCHIYDARGGTNWVFDRGTTLTVL
[1]
  IC50 (µg/mL), pseudovirus neutralization: 0.495 µg/mL
[2]
  IC50 (µg/mL), pseudovirus neutralization: 0.192 µg/mL
[3]
  IC50 (µg/mL), pseudovirus neutralization: 0.678 µg/mL
[4]
  IC50 (µg/mL), pseudovirus neutralization: > 50 µg/mL
[5]
  IC50 (µg/mL), pseudovirus neutralization: > 50 µg/mL
[6]
  IC50 (µg/mL), pseudovirus neutralization: 15.7 µg/mL
[7]
  IC50 (µg/mL), pseudovirus neutralization: > 50 µg/mL
[8]
  IC50 (µg/mL), pseudovirus neutralization: > 50 µg/mL
[9]
  IC50 (µg/mL), pseudovirus neutralization: > 50 µg/mL
[10]
  IC50 (µg/mL), pseudovirus neutralization: 0.003 µg/mL
[11]
  IC50 (µg/mL), pseudovirus neutralization: 0.565 µg/mL
[12]
  IC50 (µg/mL), pseudovirus neutralization: > 50 µg/mL
[13]
  IC50 (µg/mL), pseudovirus neutralization: 0.011 µg/mL
[14]
  IC50 (µg/mL), pseudovirus neutralization: > 50 µg/mL
[15]
  IC50 (µg/mL), pseudovirus neutralization: 0.002 µg/mL
[16]
  IC50 (µg/mL), pseudovirus neutralization: > 50 µg/mL
[17]
  IC50 (µg/mL), pseudovirus neutralization: 0.003 µg/mL
[18]
  IC50 (µg/mL), pseudovirus neutralization: 0.024 µg/mL
[19]
  IC50 (µg/mL), pseudovirus neutralization: 0.012 µg/mL
[20]
  IC50 (µg/mL), pseudovirus neutralization: 0.028 µg/mL
[21]
  IC50 (µg/mL), pseudovirus neutralization: 0.705 µg/mL
[22]
  IC50 (µg/mL), pseudovirus neutralization: > 50 µg/mL
[23]
  IC50 (µg/mL), pseudovirus neutralization: > 50 µg/mL
[24]
  IC50 (µg/mL), pseudovirus neutralization: > 50 µg/mL
[25]
  IC50 (µg/mL), pseudovirus neutralization: 0.005 µg/mL
[26]
  IC50 (µg/mL), pseudovirus neutralization: > 50 µg/mL
[27]
  IC50 (µg/mL), pseudovirus neutralization: > 50 µg/mL
[28]
  IC50 (µg/mL), pseudovirus neutralization: 0.023 µg/mL
[29]
  IC50 (µg/mL), pseudovirus neutralization: 0.004 µg/mL
[30]
  IC50 (µg/mL), pseudovirus neutralization: > 50 µg/mL
[31]
  IC50 (µg/mL), pseudovirus neutralization: > 50 µg/mL
[32]
  IC50 (µg/mL), pseudovirus neutralization: > 50 µg/mL
